Source: US20260217847A1

Legend:
[1] = molecular target: TfR1 on human erythroleukemia TF-1 cells (human) (UniProt P02786); experiment: cell-based or functional assay
[2] = molecular target: TfR1 protein stably expressed on CHO-K1-TfR1 cells (UniProt P02786); experiment: cell-based or functional assay
TfR1 protein stably expressed on CHO-K1-TfR1 cells, sequence (P02786 whole entry): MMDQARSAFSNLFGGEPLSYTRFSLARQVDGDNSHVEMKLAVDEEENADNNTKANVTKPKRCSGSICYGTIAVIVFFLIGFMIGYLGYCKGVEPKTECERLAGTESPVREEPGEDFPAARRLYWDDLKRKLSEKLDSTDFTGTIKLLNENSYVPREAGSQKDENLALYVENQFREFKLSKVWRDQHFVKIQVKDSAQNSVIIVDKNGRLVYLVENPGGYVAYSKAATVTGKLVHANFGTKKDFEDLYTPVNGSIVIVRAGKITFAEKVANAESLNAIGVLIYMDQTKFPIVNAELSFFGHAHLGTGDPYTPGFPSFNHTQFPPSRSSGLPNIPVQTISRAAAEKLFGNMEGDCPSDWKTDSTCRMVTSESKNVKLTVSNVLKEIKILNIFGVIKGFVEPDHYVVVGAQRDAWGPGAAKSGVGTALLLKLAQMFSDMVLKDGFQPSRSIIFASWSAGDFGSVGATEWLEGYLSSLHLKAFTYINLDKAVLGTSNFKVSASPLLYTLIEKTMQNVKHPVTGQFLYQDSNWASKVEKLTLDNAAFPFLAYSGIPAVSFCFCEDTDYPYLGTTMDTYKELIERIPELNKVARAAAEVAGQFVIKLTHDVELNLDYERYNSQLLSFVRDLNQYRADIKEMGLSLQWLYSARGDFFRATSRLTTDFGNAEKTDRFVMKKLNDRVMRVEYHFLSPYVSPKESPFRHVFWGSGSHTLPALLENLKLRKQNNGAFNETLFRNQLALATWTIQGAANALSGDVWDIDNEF

Tab4, pabinafusp alfa targeting humanized TfR1 (antibody), sequence (VH): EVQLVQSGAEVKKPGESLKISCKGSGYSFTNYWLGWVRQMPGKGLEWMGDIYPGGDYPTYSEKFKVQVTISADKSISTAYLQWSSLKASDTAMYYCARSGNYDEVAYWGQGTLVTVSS
Tab4, pabinafusp alfa targeting humanized TfR1 (antibody), sequence (VL): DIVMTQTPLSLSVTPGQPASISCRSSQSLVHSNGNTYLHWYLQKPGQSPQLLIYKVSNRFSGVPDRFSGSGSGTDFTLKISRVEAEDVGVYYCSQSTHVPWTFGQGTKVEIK
TfR1 on human erythroleukemia TF-1 cells (human), sequence (P02786 whole entry): as the sequence (P02786 whole entry) above

TF-1 cell internalization, fold (MFI at 37° C. to MFI at 4° C.) [1] | TF-1 cell internalization, pHrodo label, 4° C. MFI (background value) [1] | TF-1 cell internalization, pHrodo label, 37° C. MFI [1] | CHO-K1-TfR1 internalization, fold (MFI at 37° C. to MFI at 4° C.) [2] | CHO-K1-TfR1 internalization, pHrodo label, 4° C. MFI (background value) [2] | CHO-K1-TfR1 internalization, pHrodo label, 37° C. MFI [2] | Substance
1.83 fold | 712 MFI | 1300 MFI | 2.36 fold | 520 MFI | 1230 MFI | Tab4, pabinafusp alfa targeting humanized TfR1 (antibody)
1.01 fold | 471 MFI | 476 MFI | 1.53 fold | 464 MFI | 711 MFI | hIgG isotype control (antibody)
